Laboratory results taken from patent US20240207421A1, “NERVE TARGETING PEPTIDES AND METHODS OF USE” (ALUME BIOSCIENCES, INC., priority 2020, published 2024).

Experiments:
Human MPZ = assay: Phage display library screening (Example 2, Python script analysis), binding to Human MPZ; details: combined unique sequence count, Python/R script analysis
Method: Phage display library screens were used to identify peptides that bind to target proteins (including specific laminin trimers) that are expressed in human nerves, as described in Table 3. These screens were also carried out to identify peptides that could bind selectively to nerves versus muscle. Such peptides could therefore be useful for systemic in-vivo labeling of nerves during fluorescence assisted surgery. Specifically, m 13 phage libraries expressing 7 or 12 random amino acid peptides, or a cyclic peptide CX7C, on the N-terminus of the minor coat protein pIII (New England Biolabs; NEB) were processed through multiple rounds of selection for binding to target proteins expressed in nerves, or to excised human nerves, nerve extracts, or muscle, as described further below.
For screening against the specified target proteins in Table 1, including LN211, LN411, LN421, and LN521, the phage library was processed by up to 4 binding and wash cycles. For selection, phage libraries were incubated for up to 24 hours at 4° C. in 96 well plates that had been coated with one of the target proteins. Plates were then washed with PBS and phage were eluted using 0.2M glycine pH 2.0. Phage supernatants where then neutralized with Tris pH 9.0 prior to plating on TGI bacteria and LB agar plates. Colonies were counted to determine titer followed by DNA preparation of pools of phage and NextGen sequencing. After rounds of selection, phage were pooled and amplified for iterative selection. Phage that were bound at each round were sequenced. NextGen sequencing of pools after 2, 3 and 4 rounds of selection was used to isolate candidate sequences that were analyzed further to identify those that specifically bound each unique target protein.
Python Script Analysis: For all NEB sequence datasets, a python script was used to translate, trim, and filter the peptide sequences. The script translated the nucleotide sequences, translating amber codons as glutamine in peptide sequences, and then trimmed the end sequences that come from the vector. Secondly, the script combined the unique counts of trimmed peptides with identical sequences. […] Another python script was used to group peptides from different assays according to protein target (Myelin Protein Zero, Myelin Proteolipid Protein, Myelin Basic Protein, and Nidogen-2) and also combine the unique sequence counts for each peptide. An R script was written to merge the peptide sequences from different data files and determine peptides specific for each protein target but absent from different protein binding datasets. Peptide sequences were ranked by unique sequence count.

Human Myelin PLP (human) = Human Myelin PLP (human) (UniProt P60201); assay: phage display, NGS count
Human Myelin PLP (human), sequence (P60201 2-277 limits assumed): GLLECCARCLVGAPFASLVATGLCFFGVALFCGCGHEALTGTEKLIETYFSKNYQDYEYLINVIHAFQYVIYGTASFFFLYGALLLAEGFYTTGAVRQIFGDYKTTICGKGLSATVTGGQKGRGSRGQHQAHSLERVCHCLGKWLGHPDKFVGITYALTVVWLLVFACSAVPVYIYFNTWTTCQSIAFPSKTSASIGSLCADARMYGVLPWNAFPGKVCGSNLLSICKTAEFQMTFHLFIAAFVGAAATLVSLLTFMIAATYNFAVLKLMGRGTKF

[1] = target: Human Myelin Basic Protein (Homo sapiens, UniProt P02686); assay: phage display, NGS count
Human Myelin Basic Protein, sequence (P02686 135-304 limits assumed): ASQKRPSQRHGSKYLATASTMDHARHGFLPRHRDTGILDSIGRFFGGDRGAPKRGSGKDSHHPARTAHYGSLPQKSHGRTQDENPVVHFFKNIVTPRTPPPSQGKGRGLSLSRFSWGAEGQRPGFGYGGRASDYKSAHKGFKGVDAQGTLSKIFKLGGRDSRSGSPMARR

Human MPZ, sequence (P25189 30-153 limits assumed): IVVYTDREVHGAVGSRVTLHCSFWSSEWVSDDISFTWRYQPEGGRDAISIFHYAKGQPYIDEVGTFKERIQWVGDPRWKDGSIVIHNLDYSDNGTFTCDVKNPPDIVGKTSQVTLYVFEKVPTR

## ADNVLRRALENI (Human MPZ-binding peptide)
Human MPZ
  Count: 49

## AHQSSVT (peptide)
Human Myelin PLP (human)
  Count: 42

## ALFQERK (peptide)
Human Myelin PLP (human)
  Count: 27

## ALPISYL (Human MPZ-binding peptide)
Human MPZ
  Count: 42

## AMSNLSY (Human MPZ-binding peptide)
Human MPZ
  Count: 45

## AQASSAR (peptide)
Human Myelin PLP (human)
  Count: 27

## ARFVPLT (peptide)
Human Myelin PLP (human)
  Count: 30

## ASLTLAL (peptide)
Human Myelin PLP (human)
  Count: 26

## AVVAMNK (peptide)
Human Myelin PLP (human)
  Count: 28

## AWTMRAS (Human MPZ-binding peptide)
Human MPZ
  Count: 39

## AYLEDWRSMSTR (Human MPZ-binding peptide)
Human MPZ
  Count: 46

## CDIKDANSC (Human MPZ-binding peptide)
Human MPZ
  Count: 38

## CEDRQRSMC (Human MPZ-binding peptide)
Human MPZ
  Count: 40

## CERIGPREC (Human MPZ-binding peptide)
Human MPZ
  Count: 39

## CGEKIMSLC (Human MPZ-binding peptide)
Human MPZ
  Count: 40

## CIKGEDNQC (Human MPZ-binding peptide)
Human MPZ
  Count: 38

## CLKQQTGDC (Human MPZ-binding peptide)
Human MPZ
  Count: 37

## CPDAARNSC (Human MPZ-binding peptide)
Human MPZ
  Count: 43

## CQKWFTFAC (Human MPZ-binding peptide)
Human MPZ
  Count: 39

## CRVGVTSAC (Human MPZ-binding peptide)
Human MPZ
  Count: 41

## CSNALNKAC (Human MPZ-binding peptide)
Human MPZ
  Count: 39

## CYSSVADMC (Human MPZ-binding peptide)
Human MPZ
  Count: 43

## DGSRDLV (peptide)
Human Myelin PLP (human)
  Count: 30

## DRHEGHR (peptide)
Human Myelin PLP (human)
  Count: 26

## DRYLLNQ (Human MPZ-binding peptide)
Human MPZ
  Count: 40

## EKSTTVA (peptide)
Human Myelin PLP (human)
  Count: 30

## EPSSFTF (peptide)
Human Myelin PLP (human)
  Count: 31

## EVLYPNN (peptide)
Human Myelin PLP (human)
  Count: 27

## FALPAGL (Human MPZ-binding peptide)
Human MPZ
  Count: 41

## FEHMAVT (Human MPZ-binding peptide)
Human MPZ
  Count: 42

## FMSDVDH (Human MPZ-binding peptide)
Human MPZ
  Count: 37

## FRIDKSM (peptide)
Human Myelin PLP (human)
  Count: 26

## FSLDRDG (peptide)
Human Myelin PLP (human)
  Count: 29

## FSTPTNV (peptide)
Human Myelin PLP (human)
  Count: 29

## GHLQSLF (peptide)
Human Myelin PLP (human)
  Count: 26

## GIPSSKN (peptide)
Human Myelin PLP (human)
  Count: 28

## GKSYSQI (peptide)
Human Myelin PLP (human)
  Count: 31

## GLWGPSL (peptide)
Human Myelin PLP (human)
  Count: 26

## GNVFQTS (peptide)
Human Myelin PLP (human)
  Count: 31

## GPAAVII (peptide)
Human Myelin PLP (human)
  Count: 29

## GSAWKKH (peptide)
Human Myelin PLP (human)
  Count: 44

## GWSTAIR (peptide)
Human Myelin PLP (human)
  Count: 29

## HKAPLGT (peptide)
Human Myelin PLP (human)
  Count: 29

## HLHTRPT (peptide)
Human Myelin PLP (human)
  Count: 27

## IDRVRGL (peptide)
Human Myelin PLP (human)
  Count: 29

## IHHLESS (peptide)
Human Myelin PLP (human)
  Count: 32

## IIPPTSV (peptide)
Human Myelin PLP (human)
  Count: 31

## IRPTHNG (peptide)
Human Myelin PLP (human)
  Count: 27

## KGVIPAT (peptide)
Human Myelin PLP (human)
  Count: 27

## KPSASIY (peptide)
Human Myelin PLP (human)
  Count: 26

## LHQTYRP (peptide)
Human Myelin PLP (human)
  Count: 27

## LMQKPSI (peptide)
Human Myelin PLP (human)
  Count: 29

## LNGISAL (peptide)
Human Myelin PLP (human)
  Count: 32

## LPHRLNP (peptide)
Human Myelin PLP (human)
  Count: 27

## LPLRLHA (peptide)
Human Myelin PLP (human)
  Count: 31

## LPSHASI (peptide)
Human Myelin PLP (human)
  Count: 26

## LPVKNLL (peptide)
Human Myelin PLP (human)
  Count: 26

## MKIMPMD (peptide)
Human Myelin PLP (human)
  Count: 26

## MPHAPVQ (peptide)
Human Myelin PLP (human)
  Count: 37

## NDASTVS (peptide)
Human Myelin PLP (human)
  Count: 28

## NIPSSIL (peptide)
Human Myelin PLP (human)
  Count: 33

## NVFSATP (peptide)
Human Myelin PLP (human)
  Count: 31

## QLPRNNL (peptide)
Human Myelin PLP (human)
  Count: 28

## QPNMLKP (peptide)
Human Myelin PLP (human)
  Count: 33

## QRRSVIL (peptide)
Human Myelin PLP (human)
  Count: 31

## RLQPEPT (peptide)
Human Myelin PLP (human)
  Count: 33

## SALISTR (peptide)
Human Myelin PLP (human)
  Count: 32

## SAQSRSF (peptide)
Human Myelin PLP (human)
  Count: 26

## SGLHYAL (peptide)
Human Myelin PLP (human)
  Count: 32

## SGVATYT (peptide)
Human Myelin PLP (human)
  Count: 31

## SLNRGGA (peptide)
Human Myelin PLP (human)
  Count: 28

## SLPGYRH (peptide)
Human Myelin PLP (human)
  Count: 28

## SLPSLLP (peptide)
Human Myelin PLP (human)
  Count: 26

## SLWQTLR (peptide)
[1]
  Count: 6

## SLWTHRT (peptide)
[1]
  Count: 6

## SNAERWR (peptide)
[1]
  Count: 9

## SNAHTLP (peptide)
[1]
  Count: 6

## SPKPDIP (peptide)
[1]
  Count: 6

## SPPRFIP (peptide)
[1]
  Count: 8

## SRHLPPL (peptide)
[1]
  Count: 6

## SRPTRVP (peptide)
[1]
  Count: 9

## SSFYVAY (peptide)
[1]
  Count: 6

## SSGMLSK (peptide)
[1]
  Count: 7

## SSMRYNS (peptide)
[1]
  Count: 6

## SVEKYSK (peptide)
Human Myelin PLP (human)
  Count: 33

## SVEYGQL (peptide)
[1]
  Count: 9

## SVGLPTK (peptide)
[1]
  Count: 6

## SVLPDKL (peptide)
Human Myelin PLP (human)
  Count: 28

## SVMWMTP (peptide)
Human Myelin PLP (human)
  Count: 29

## SVVYQNS (peptide)
Human Myelin PLP (human)
  Count: 26

## SWDVLEL (peptide)
Human Myelin PLP (human)
  Count: 31

## SWFESHN (peptide)
[1]
  Count: 8

## SYRSMAP (peptide)
[1]
  Count: 6

## SYTLSRS (peptide)
[1]
  Count: 7

## SYVTVFR (peptide)
[1]
  Count: 6

## TDVEMVP (peptide)
Human Myelin PLP (human)
  Count: 40

## TFPERLR (peptide)
Human Myelin PLP (human)
  Count: 31

## TGISSTP (peptide)
Human Myelin PLP (human)
  Count: 27

## TGNLRLY (peptide)
[1]
  Count: 9

## TGPSSAV (peptide)
[1]
  Count: 6

## TGSVSKQ (peptide)
[1]
  Count: 6

## THKHMMT (peptide)
[1]
  Count: 6

## TIRVAHT (peptide)
[1]
  Count: 6

## TKITPHR (peptide)
Human Myelin PLP (human)
  Count: 29

## TLLTALT (peptide)
[1]
  Count: 7

## TLWAQKT (peptide)
Human Myelin PLP (human)
  Count: 28

## TMPIKAM (peptide)
Human Myelin PLP (human)
  Count: 27

## TPGRATL (peptide)
[1]
  Count: 6

## TPLYLSS (peptide)
[1]
  Count: 7

## TPQVMLK (peptide)
[1]
  Count: 8

## TPVLWLP (peptide)
[1]
  Count: 6

## TPVRLNT (peptide)
[1]
  Count: 6

## TQMTMDS (peptide)
[1]
  Count: 10

## TQPRYPS (peptide)
Human Myelin PLP (human)
  Count: 28

## TRASYPQ (peptide)
Human Myelin PLP (human)
  Count: 32

## TRIPILL (peptide)
[1]
  Count: 6

## TSPPLAH (peptide)
[1]
  Count: 8

## TSRLVST (peptide)
[1]
  Count: 8

## TTTIADM (peptide)
Human Myelin PLP (human)
  Count: 26

## TTTQGHP (peptide)
[1]
  Count: 6

## VAHQRVS (peptide)
[1]
  Count: 8

## VFPERRV (peptide)
Human Myelin PLP (human)
  Count: 28

## VGTFWTR (peptide)
[1]
  Count: 6

## VGYRSAS (peptide)
Human Myelin PLP (human)
  Count: 28

## VIRTAAM (peptide)
[1]
  Count: 6

## VLSPYHN (peptide)
[1]
  Count: 6

## VPGHISG (peptide)
Human Myelin PLP (human)
  Count: 27

## VPTLRIP (peptide)
[1]
  Count: 8

## VRGTPNH (peptide)
[1]
  Count: 6

## VRTSMNH (peptide)
Human Myelin PLP (human)
  Count: 28

## VSASWMP (peptide)
Human Myelin PLP (human)
  Count: 27

## VSFTLEP (peptide)
[1]
  Count: 7

## VSSQEQA (peptide)
Human Myelin PLP (human)
  Count: 34

## VTGPGTP (peptide)
Human Myelin PLP (human)
  Count: 26

## VTPNKAR (peptide)
Human Myelin PLP (human)
  Count: 26

## VVDMSTY (peptide)
[1]
  Count: 7

## WDLPQNR (peptide)
[1]
  Count: 6

## WDLRHSK (peptide)
[1]
  Count: 6

## WHYTPSM (peptide)
Human Myelin PLP (human)
  Count: 26

## WNTADRL (peptide)
Human Myelin PLP (human)
  Count: 34

## WPDLRIL (peptide)
[1]
  Count: 7

## WSLPLLS (peptide)
[1]
  Count: 7

## WSPHGYK (peptide)
Human Myelin PLP (human)
  Count: 27

## WSPHRSF (peptide)
Human Myelin PLP (human)
  Count: 31

## WSPRWPS (peptide)
[1]
  Count: 7

## WSRISVD (peptide)
Human Myelin PLP (human)
  Count: 26

## WTYHPTT (peptide)
[1]
  Count: 6

## WVPDRSL (peptide)
[1]
  Count: 6

## YATATPS (peptide)
[1]
  Count: 8

## YLPPPLP (peptide)
[1]
  Count: 7

## YPTYLSY (peptide)
[1]
  Count: 6

## YPYVPIY (peptide)
[1]
  Count: 6

## YSDTYKH (peptide)
Human Myelin PLP (human)
  Count: 30

## YSQAISA (peptide)
Human Myelin PLP (human)
  Count: 27

## YSSRLND (peptide)
[1]
  Count: 6

## YSSRLTA (peptide)
Human Myelin PLP (human)
  Count: 29

## YTASPRW (peptide)
[1]
  Count: 6

## YTWTPSR (peptide)
Human Myelin PLP (human)
  Count: 28

## YVNRVKQ (peptide)
[1]
  Count: 6
